Data: publication PMC4528709, “Determinants in HIV-2 Env and tetherin required for functional interaction” (Retrovirology, 2015)

Target: T1, GFP-tagged ROD10 Env_(Y707A) (HIV-2 (strain ROD10), UniProt P04577 20-858, Y707A)
T1 construct: Env protein of HIV-2 strain ROD10 with a point mutation that disrupts an endocytosis motif in the cytoplasmic tail (pROD10_(Y707A) Env); also called Y707A mutant; source: 293T, co-transfected (2 ug plasmid), in lysate; not shown: eGFP, C-terminal, kept
T1 sequence (looked up): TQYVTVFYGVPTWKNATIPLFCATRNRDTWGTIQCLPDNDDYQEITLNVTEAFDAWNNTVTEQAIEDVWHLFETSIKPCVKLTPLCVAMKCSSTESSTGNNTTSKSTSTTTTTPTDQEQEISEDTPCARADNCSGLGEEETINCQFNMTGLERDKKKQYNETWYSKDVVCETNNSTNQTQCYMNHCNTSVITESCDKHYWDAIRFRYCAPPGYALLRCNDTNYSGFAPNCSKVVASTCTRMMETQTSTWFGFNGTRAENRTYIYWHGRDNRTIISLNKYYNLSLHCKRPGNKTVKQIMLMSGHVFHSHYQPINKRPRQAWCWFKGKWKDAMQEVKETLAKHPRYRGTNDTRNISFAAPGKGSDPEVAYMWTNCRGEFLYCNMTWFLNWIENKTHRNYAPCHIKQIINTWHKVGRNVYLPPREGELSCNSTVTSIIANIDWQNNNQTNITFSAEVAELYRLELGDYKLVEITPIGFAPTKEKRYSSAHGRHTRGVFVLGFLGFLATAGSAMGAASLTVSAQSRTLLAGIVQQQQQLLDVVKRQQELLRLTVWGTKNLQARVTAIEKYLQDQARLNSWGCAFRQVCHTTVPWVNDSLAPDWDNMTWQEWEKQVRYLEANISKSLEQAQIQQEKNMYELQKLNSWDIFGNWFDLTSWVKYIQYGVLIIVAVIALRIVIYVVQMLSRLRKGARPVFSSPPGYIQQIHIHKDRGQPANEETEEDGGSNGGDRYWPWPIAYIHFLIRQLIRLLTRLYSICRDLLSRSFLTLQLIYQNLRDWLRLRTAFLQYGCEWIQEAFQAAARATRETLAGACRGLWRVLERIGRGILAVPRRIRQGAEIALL
Experiment: co-IP; quantification of tetherin immunoprecipitated by GFP-tagged Env, corrected for the cellular level of the Env protein, n = 3 experiments, data not shown
Conditions: partners not purified

B1: tetherin/BST-2 (natural protein)
chain: MASTSYDYCRVPMEDGDKRCKLLLGIGILVLLIIVILGVPLIIFTIKANSEACRDGLRAVMECRNVTHLLQQELTEAQKGFQDVEAQAATCNHTVMALMASLDAEKAQGQKKVEELEGEITTLNHKLQDASAEVERLRRENQVLSVRIADKKYYPSSQDSS
notes: tetherin/BST-2, human; untagged expression plasmid described in earlier work [20, 29, 38]; also called wild-type tetherin; source: 293T, co-transfected (200 ng plasmid), in lysate
- efficiency at immunoprecipitating tetherin relative to the WT ROD10 Env: 67%
